Assay results reported in PMC5716572, “Regulation of potassium dependent ATPase (kdp) operon of Deinococcus radiodurans”.

Tests used:
[1] = biological target: T1, RR (KdpE-like response regulator) (Deinococcus radiodurans R1 ATCC BAA-816) (UniProt Q9RZP1); test: EMSA; details: 20 mM HEPES pH 7.6, 10 mM (NH4)2SO4, 30 mM KCl, 1 mM EDTA, 1 mM DTT, 0.2% Tween20, 37°C 1 h; 10% native PAGE in 0.5X TBE
T1 sequence: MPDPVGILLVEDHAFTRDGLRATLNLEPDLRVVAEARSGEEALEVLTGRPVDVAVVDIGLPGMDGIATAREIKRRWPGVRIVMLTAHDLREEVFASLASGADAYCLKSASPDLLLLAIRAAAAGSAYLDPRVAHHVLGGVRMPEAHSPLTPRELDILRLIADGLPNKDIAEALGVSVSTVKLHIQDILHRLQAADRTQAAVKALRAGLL

[2] = biological target: T2, RR (KdpE-like response regulator) (Deinococcus radiodurans R1 ATCC BAA-816, UniProt Q9RZP1 1-209); test: EMSA; details: apparent; Hill coefficient 1.36 ± 0.17; unphosphorylated; 20 mM HEPES pH 7.6, 10 mM (NH4)2SO4, 30 mM KCl, 1 mM EDTA, 1 mM DTT, 0.2% Tween20, 37°C 1 h; 10% native PAGE in 0.5X TBE
T2 sequence: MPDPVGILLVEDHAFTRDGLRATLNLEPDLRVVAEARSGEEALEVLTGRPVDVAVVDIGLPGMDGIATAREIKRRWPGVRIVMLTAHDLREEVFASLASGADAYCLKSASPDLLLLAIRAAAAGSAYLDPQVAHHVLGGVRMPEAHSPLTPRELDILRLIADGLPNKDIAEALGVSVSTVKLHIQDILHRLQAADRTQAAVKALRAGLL

[3] = biological target: T2, RR (KdpE-like response regulator); test: EMSA; 12% native PAGE; 20 mM HEPES pH 7.6, 10 mM (NH4)2SO4, 30 mM KCl, 1 mM EDTA, 1 mM DTT, 0.2% Tween20, 37°C 1 h; 10% native PAGE in 0.5X TBE; details: protein: recombinant; tags: C-terminal His tag (pET29b NdeI/XhoI, Ni-NTA; position implied by vector); chain copies: 2; label: DIG-ddUTP; blunt

## GGCCTTGATGAGGTTCTTGTCCTTGGCGTACTTGTTGAGCACGCGGGTGTACGCCGTCTTGAAGCCGGTCAGCGGGGTGCCGCCGTCGCGGGTGCGGATCATGTTGGCGTAGGTCAGGATGTTGTCGCTGGCGTAGGTGTTGGCGTGGATAAA (double strand) [nsDNA (DR_0906 fragment)]
[1]
  binding: no binding

## PkdpB-200
[2]
  Kd: 3.62 µM

B1: PkdpB-38 (dsDNA)
DNA 1: AACGGCGCTATGAGTCTTTCTTCTTTCCGGTGGCGGCC
DNA 2: GGCCGCCACCGGAAAGAAGAAAGACTCATAGCGCCGTT
[3]
  binding result: binds
